Test results reported in patent EP0946727B1 (GENENTECH, INC., dated 2007).

Legend:
[1] = target: T1, rhesus-human chimeric CD11a (human CD11a with a rhesus I-domain) (human, UniProt P20701 26-1170); experiment: blocking of adhesion of Rh/HuCD11a-293 cells to human keratinocytes
T1 construct: whole, on cells; also called Rh/HuCD11a
T1 sequence (looked up): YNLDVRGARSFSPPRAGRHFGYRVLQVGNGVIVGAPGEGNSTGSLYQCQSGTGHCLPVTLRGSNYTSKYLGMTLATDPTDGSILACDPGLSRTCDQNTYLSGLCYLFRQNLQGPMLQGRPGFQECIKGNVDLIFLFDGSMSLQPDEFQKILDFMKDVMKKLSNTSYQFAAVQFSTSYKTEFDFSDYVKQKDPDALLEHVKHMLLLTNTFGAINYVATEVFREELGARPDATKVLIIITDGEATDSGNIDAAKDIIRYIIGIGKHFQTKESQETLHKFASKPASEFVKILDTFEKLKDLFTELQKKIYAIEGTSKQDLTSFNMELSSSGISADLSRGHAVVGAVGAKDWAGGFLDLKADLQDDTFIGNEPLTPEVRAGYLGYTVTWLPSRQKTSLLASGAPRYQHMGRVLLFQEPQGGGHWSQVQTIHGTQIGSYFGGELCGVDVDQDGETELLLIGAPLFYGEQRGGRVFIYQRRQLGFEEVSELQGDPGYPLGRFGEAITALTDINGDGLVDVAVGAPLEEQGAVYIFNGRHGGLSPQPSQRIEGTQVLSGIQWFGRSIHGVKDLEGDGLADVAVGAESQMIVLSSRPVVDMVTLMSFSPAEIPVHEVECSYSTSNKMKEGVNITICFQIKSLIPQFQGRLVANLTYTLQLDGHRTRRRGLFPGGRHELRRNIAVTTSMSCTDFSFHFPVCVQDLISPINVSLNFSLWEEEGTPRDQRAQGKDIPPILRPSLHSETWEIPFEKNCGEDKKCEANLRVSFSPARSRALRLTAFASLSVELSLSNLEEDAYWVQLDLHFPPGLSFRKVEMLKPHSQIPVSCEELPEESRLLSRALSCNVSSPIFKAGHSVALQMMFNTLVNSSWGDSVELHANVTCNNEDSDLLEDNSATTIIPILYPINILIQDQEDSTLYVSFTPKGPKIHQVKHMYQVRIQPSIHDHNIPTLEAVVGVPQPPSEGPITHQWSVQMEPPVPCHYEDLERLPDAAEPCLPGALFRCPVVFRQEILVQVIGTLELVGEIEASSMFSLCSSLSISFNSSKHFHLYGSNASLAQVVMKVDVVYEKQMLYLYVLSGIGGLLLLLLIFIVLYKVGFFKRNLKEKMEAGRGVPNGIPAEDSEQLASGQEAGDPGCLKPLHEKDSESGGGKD

[2] = target: T2, rhesus CD11a (rhesus, UniProt H9Z8N3 26-1169); experiment: blocking of rhesus lymphocyte adhesion to human keratinocytes
T2 construct: whole, on cells; also called rhCD11a
T2 sequence: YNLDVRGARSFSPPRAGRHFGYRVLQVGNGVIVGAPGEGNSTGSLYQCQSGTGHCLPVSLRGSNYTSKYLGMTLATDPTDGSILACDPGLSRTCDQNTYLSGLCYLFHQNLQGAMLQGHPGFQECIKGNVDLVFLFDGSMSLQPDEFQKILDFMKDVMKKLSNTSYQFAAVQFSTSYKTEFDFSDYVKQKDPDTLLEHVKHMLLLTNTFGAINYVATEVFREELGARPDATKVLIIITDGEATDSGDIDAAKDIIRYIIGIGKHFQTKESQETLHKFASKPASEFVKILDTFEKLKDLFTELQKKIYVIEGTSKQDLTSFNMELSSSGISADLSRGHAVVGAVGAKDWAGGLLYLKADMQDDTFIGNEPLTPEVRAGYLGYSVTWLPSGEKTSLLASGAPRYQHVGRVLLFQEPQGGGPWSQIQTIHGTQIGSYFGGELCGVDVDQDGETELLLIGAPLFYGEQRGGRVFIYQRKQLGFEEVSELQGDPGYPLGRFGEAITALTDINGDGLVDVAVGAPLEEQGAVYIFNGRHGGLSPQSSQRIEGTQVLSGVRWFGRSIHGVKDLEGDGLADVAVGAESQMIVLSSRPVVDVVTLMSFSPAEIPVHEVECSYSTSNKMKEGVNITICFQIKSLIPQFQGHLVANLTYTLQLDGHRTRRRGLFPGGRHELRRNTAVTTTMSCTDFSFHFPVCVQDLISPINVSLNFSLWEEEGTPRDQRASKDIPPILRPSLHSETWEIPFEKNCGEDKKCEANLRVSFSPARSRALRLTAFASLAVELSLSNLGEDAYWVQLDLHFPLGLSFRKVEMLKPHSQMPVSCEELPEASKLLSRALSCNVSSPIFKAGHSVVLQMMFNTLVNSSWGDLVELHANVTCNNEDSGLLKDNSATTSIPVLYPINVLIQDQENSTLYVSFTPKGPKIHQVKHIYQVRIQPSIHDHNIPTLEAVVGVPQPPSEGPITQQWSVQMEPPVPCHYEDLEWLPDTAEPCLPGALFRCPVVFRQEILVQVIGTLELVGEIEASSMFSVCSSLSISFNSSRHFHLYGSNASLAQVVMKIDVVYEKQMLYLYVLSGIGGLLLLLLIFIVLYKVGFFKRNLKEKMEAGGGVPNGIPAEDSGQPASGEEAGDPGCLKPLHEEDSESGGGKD

[3] = target: T2, rhesus CD11a; experiment: blocking of rhesus lymphocyte adhesion to recombinant human ICAM-1 on plates
[4] = target: T2, rhesus CD11a; experiment: saturation binding, Kd(app)
[5] = target: T2, rhesus CD11a; experiment: blocking of rhesus lymphocyte adhesion to recombinant human ICAM-1 on plates; remark: listed apart in the source
[6] = target: T2, rhesus CD11a; experiment: cell-based or functional assay
[7] = target: T1, rhesus-human chimeric CD11a (human …); experiment: blocking of adhesion of Rh/HuCD11a-transfected 293 cells to human keratinocytes
[8] = target: T2, rhesus CD11a; experiment: cell binding, rhesus CD11a
[9] = target: T2, rhesus CD11a; experiment: blocking of rhesus lymphocyte adhesion to human keratinocytes; remark: listed apart in the source

B1: rhesus-binding MHM24 IgG1 (rhesusized antibody mutant) (antibody, V domains shown)
VH: EVQLVESGGGLVQPGGSLRLSCAASGYSFTGHWMNWVRQAPGKGLEWVGMIAPASSSTRYNQKFKDRFTISVDKSKNTLYLQMNSLRAEDTAVYYCARGIYFYGTTYFDYWGQGTLVTVSS
VL: DIQMTQSPSSLSASVGDRVTITCRASKTISKYLAWYQQKPGKAPKLLIYSGSTLQSGVPSRFSGSGSGTDFTLTISSLQPEDFATYYCQQHNEYPLTFGQGTKVEIKR
fold down from MHM23 [1]: 4 fold | IC50 [2]: 119 nM | fold less efficacious than MHM23 [3]: 4 fold | fold down of Kd from the Kd of HuIgG1 for human CD11a [4]: ~26 fold | IC50 [5]: 5.3 nM | IC50, rhesus mixed lymphocyte response (MLR) [6]: 23.4 nM | IC50 [7]: 4.9 nM | fold improvement over the EC50 of HuIgG1 for rhesus CD11a [8]: 240 to 415 fold | fold weaker than the EC50 of HuIgG1 for human CD11a [8]: 3 to 5 fold | fold less efficacious than MHM23 [9]: 74 fold
